Laboratory results as given in patent US20240287501A1 (VIB VZW, published 2024).

Key:
[1] = molecular target: T1, SSA1 (native, from EBY100 lysate) (Saccharomyces cerevisiae, UniProt P10591 2-642); test: co-immunoprecipitation, Nb coupled to NHS-agarose beads, EBY100 yeast lysate (native target), SDS-PAGE
T1 construct: mature; Endogenous untagged protein; also called YAL005C
Method: (§1) Six SSA1-specific Nanobodies (60=Nb clone CA17560 corresponding to SEQ ID NO: 19, 61=CA17561-SEQ ID NO: 20, 62=CA17562-SEQ ID NO: 21, 63=CA17563-SEQ ID NO: 22, 64=CA17564-SEQ ID NO: 23, 65=CA17565-SEQ ID NO: 24) were characterized by co-immunoprecipitation assays. Each SSA1-specific Nanobodies was covalently linked to NHS-agarose beads. The beads that were functionalized with these SSA1-specific Nanobodies were incubated for an hour at 4° C. on a rotating device with either an EBY100 lysate or the lysate of the engineered Yeast strain expressing SSA1 (Yeast GFP fusion collection reference: GFP(+)10, E4) as a GFP-tagged protein. After washing, these beads were resuspended in SDS-PAGE loading dye and analyzed on SDS-PAGE (FIG. 6A). Separated proteins were transferred to a PVDF membrane and the Western blot (FIG. 6B) was developed with GFP-specific antibody to confirm the presence of GFP-tagged SSA1.

GFP-tagged SSA1 = molecular target: T2, GFP-tagged SSA1 (Saccharomyces cerevisiae, UniProt P10591 2-642); test: co-immunoprecipitation, Nb coupled to NHS-agarose beads, lysate of the yeast strain expressing the GFP-tagged target, SDS-PAGE
T2 construct: Yeast GFP Fusion Collection strain; also called Yeast GFP fusion collection GFP(+)10, E4; not shown: GFP tag
T2 sequence (P10591 2-642): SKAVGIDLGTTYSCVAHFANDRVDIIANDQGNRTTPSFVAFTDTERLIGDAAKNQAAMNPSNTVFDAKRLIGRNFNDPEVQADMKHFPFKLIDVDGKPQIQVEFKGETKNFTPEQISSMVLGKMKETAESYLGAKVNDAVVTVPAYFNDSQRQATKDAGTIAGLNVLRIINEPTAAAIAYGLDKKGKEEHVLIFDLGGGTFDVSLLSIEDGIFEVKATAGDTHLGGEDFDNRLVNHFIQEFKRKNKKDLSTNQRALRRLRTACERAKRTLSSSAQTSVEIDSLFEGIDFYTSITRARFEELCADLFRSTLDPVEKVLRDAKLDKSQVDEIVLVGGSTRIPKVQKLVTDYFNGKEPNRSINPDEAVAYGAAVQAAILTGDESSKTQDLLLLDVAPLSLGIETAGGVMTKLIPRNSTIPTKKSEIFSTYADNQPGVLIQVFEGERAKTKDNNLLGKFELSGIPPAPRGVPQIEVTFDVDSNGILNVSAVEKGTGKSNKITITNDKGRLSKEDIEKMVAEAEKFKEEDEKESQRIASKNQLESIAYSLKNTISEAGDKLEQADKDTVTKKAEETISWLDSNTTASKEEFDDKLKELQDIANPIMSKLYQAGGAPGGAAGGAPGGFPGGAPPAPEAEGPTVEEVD
Method: as §1

[2] = molecular target: T3, BMH1 (native, from EBY100 lysate) (Saccharomyces cerevisiae, UniProt P29311 2-267); test: co-IP, Nb on NHS-agarose beads, EBY100 yeast lysate, SDS-PAGE
T3 construct: mature; Endogenous untagged protein; also called YER177W
T3 sequence (looked up): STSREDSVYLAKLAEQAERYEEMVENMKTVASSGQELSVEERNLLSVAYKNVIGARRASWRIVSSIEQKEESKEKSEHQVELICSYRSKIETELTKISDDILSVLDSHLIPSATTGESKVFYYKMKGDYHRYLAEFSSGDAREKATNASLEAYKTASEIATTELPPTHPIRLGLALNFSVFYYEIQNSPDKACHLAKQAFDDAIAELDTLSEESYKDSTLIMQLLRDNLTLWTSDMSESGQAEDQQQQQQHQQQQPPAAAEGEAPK

GFP-tagged BMH1 = molecular target: T4, GFP-tagged BMH1 (Saccharomyces cerevisiae, UniProt P29311 2-267); test: co-immunoprecipitation, Nb coupled to NHS-agarose beads, lysate of the yeast strain expressing the GFP-tagged target, Western blot anti-GFP
T4 construct: Yeast GFP Fusion Collection strain; also called Yeast GFP fusion collection GFP(+)27, D5; not shown: GFP tag
T4 sequence (looked up): T3 sequence (looked up)
Method: One SIS1-specific Nanobody (44=Nb clone CA17444 corresponding to SEQ ID NO: 9), three ALD6-specific Nanobodies (53=CA17453-SEQ ID NO: 10, 54=CA17454-SEQ ID NO: 11, 60=CA17460-SEQ ID NO: 12), two BMH1-specific Nanobodies (58=CA17458-SEQ ID NO: 13, 59=CA17459-SEQ ID NO: 14) were characterized by co-immunoprecipitation assays. Each target-specific Nanobodies was covalently linked to NHS-agarose beads. The beads that were functionalized with these target-specific Nanobodies were incubated for an hour at 4° C. on a rotating device with either an EBY100 lysate or the lysate of the engineered Yeast strain expressing the target (Yeast GFP fusion collection reference for SIS1: GFP(+)22, E5, for ALD6: GFP(+)15, F1, for BMH1: GFP(+)27, D5) as a GFP-tagged protein. After washing, these beads were resuspended in SDS-PAGE loading dye and analyzed on SDS-PAGE (FIG. 8A). Separated proteins were transferred to a PVDF membrane and the Western blot (FIG. 8B) was developed with GFP-specific antibody to confirm the presence of GFP-tagged targets.

GFP-tagged HSP104 = molecular target: T5, GFP-tagged HSP104 (Saccharomyces cerevisiae, UniProt P31539 1-908); test: as above
T5 construct: Yeast GFP Fusion Collection strain; also called Yeast GFP fusion collection GFP(+)05, A2; YLL026W; not shown: GFP tag
T5 sequence (P31539 whole entry, the tested form may be a part): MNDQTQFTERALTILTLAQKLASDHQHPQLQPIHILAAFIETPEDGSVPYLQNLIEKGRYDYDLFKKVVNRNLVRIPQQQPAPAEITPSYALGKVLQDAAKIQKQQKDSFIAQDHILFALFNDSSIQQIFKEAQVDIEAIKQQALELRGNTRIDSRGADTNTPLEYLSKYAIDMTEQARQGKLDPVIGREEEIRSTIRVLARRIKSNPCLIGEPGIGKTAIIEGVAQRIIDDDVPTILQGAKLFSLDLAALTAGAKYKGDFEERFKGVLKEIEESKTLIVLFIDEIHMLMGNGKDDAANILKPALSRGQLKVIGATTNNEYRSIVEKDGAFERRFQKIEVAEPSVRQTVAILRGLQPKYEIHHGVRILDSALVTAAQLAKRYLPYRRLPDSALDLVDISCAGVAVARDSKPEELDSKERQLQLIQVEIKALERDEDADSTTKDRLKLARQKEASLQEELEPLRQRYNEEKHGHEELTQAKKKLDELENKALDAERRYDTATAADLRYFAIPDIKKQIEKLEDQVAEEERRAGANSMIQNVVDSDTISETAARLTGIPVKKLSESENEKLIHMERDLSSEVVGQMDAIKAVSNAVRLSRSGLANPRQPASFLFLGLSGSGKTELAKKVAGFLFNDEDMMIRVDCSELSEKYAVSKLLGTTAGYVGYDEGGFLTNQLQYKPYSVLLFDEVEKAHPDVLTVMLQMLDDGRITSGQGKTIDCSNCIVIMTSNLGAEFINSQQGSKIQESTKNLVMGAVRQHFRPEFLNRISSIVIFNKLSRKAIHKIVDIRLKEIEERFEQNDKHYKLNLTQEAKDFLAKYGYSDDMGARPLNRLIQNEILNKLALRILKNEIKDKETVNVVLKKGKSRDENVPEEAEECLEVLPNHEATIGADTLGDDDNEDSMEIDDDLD
Text: (§2) One HSP104-specific Nanobody (04=CA18504 SEQ ID NO:40), one MET6-specific Nanobody (05=CA18505 SEQ ID NO:41), two SBA1-specific Nanobodies (08=Nb clone CA18508 corresponding to SEQ ID NO:42, 09=CA18509-SEQ ID NO:43), one SOD1-specific Nanobody (10=CA18510-SEQ ID NO:44), and a ENO1-specific Nanobody (38=CA17938-SEQ ID NO:45), were characterized by co-immunoprecipitation assays. Each POI-specific Nanobodies was covalently linked to NHS-agarose beads. The beads that were functionalized with these POI-specific Nanobodies were incubated for an hour at 4° C. on a rotating device with the lysate of the engineered Yeast strain expressing the POIs (Yeast GFP fusion collection reference: GFP(+)05, A2 (HSP104); GFP(+)07, D4 (MET6); GFP(+)30, A6 (SBA1); GFP(+)33, F8 (SOD1) and GFP(+)17, D12 (ENO1) as a GFP-tagged protein. After washing, these beads were analyzed on SDS-PAGE (not shown) and Western blot was developed with GFP-specific antibody to confirm the presence of GFP-tagged POIs.

GFP-tagged MET6 = molecular target: T6, GFP-tagged MET6 (Saccharomyces cerevisiae, UniProt P05694 2-767); test: as above
T6 construct: Yeast GFP Fusion Collection strain; also called Yeast GFP fusion collection GFP(+)07, D4; YER091C; not shown: GFP tag
T6 sequence (looked up): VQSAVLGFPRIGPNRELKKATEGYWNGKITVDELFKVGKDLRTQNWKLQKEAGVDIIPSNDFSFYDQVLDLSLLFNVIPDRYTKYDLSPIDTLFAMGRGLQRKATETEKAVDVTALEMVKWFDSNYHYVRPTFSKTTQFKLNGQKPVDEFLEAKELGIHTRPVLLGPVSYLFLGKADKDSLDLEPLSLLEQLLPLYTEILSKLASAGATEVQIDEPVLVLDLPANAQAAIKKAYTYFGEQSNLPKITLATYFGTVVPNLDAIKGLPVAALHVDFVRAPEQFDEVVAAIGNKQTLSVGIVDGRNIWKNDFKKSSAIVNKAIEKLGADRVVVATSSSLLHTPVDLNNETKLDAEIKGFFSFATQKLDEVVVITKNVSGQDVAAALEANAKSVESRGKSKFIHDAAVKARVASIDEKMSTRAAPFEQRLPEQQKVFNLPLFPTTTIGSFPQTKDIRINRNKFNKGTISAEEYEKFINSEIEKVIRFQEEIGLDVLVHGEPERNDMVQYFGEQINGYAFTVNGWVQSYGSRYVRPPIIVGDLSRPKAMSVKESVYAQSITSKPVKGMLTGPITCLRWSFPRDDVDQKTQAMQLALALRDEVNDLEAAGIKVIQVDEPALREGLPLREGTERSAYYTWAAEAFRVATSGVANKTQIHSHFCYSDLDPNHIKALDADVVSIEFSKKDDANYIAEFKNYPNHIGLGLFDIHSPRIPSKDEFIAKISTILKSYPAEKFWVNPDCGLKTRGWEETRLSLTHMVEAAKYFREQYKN
Text: as §2

GFP-tagged SBA1 = molecular target: T7, GFP-tagged SBA1 (Saccharomyces cerevisiae, UniProt P28707 2-216); test: as above
T7 construct: Yeast GFP Fusion Collection strain; also called Yeast GFP fusion collection GFP(+)30, A6; YKL117W; not shown: GFP tag
T7 sequence (looked up): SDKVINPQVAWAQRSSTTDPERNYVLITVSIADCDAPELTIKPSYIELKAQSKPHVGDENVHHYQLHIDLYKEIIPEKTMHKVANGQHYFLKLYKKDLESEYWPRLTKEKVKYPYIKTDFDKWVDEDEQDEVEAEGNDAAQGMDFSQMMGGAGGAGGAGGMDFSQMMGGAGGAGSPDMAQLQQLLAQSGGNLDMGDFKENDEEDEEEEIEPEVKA
Text: as §2

GFP-tagged SOD1 = molecular target: T8, GFP-tagged SOD1 (Saccharomyces cerevisiae, UniProt P00445 2-154); test: as above
T8 construct: Yeast GFP Fusion Collection strain; also called Yeast GFP fusion collection GFP(+)33, F8; YJR104C; not shown: GFP tag
T8 sequence (looked up): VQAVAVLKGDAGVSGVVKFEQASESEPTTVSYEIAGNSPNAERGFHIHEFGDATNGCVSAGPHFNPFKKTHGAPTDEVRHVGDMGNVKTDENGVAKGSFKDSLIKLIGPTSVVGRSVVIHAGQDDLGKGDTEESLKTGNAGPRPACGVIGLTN
Text: as §2

GFP-tagged ENO1 = molecular target: T9, GFP-tagged ENO1 (Saccharomyces cerevisiae, UniProt P00924 2-437); test: as above
T9 construct: Yeast GFP Fusion Collection strain; also called Yeast GFP fusion collection GFP(+)17, D12; YGR254W; not shown: GFP tag
T9 sequence (P00924 2-437): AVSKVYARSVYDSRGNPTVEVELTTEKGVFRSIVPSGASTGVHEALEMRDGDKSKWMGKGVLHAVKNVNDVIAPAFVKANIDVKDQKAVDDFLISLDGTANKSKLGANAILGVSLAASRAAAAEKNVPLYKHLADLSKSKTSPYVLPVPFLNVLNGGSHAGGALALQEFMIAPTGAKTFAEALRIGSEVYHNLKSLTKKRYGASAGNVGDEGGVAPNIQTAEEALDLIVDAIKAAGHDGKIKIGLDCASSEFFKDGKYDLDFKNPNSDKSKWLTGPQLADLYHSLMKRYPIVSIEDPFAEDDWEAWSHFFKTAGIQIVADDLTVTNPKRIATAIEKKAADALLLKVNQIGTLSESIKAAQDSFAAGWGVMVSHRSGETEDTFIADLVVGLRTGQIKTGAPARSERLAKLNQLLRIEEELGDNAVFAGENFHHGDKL
Text: as §2

GFP protein = molecular target: T10, GFP protein (Aequorea victoria (Water jellyfish) …, UniProt P42212 1-238 = GFP, biotinylated with the EZ-Link sulfo-NHS-LC-biotinylation kit for the BLI assay; unmodified in the NANEX selections); test: method not stated
T10 construct: Purified GFP; also called wild type GFP; biotinylated GFP

T1 sequence (P10591 2-642): as the sequence (P10591 2-642) above

B1: CA17560 (VHH)
VHH: QVQLVESGGGLVHSGGSLRLSCVASGGAFNDYTMGWFRQAPGKERQFVAAITWSSGVTSYSDSVRGRFVISRDIAKNTVYLQMNSLNPEETAVYVCAARLGVSSSPNSQISHRYDYWGQGTQVTVSS
notes: C-terminal 6xHis-EPEA tag is part of the entry
binding result [1]: binds | binding result (GFP-tagged SSA1): binds

B2: CA17458 (VHH)
VHH: QVQLVESGGGLVQPGGSLRLSCAASGTTLSLRRVGWYRQAPGKQRDLVATLTSGGETSYADSVKGRFTISRDNAKNTVYLQMNSLKLEDTAVYYCNAINWPMDYWGQGTQVTVSS
notes: as for B1
binding result [2]: binds | binding result (GFP-tagged BMH1): binds

B3: CA18504 (VHH)
VHH: QVQLVESGGGLVQPGGSLTLSCAGSGRAFDSIAMGWFRQAPGKEREFVAAISWNGVSAYYADSVKGRFTISRDNAKNTVHLQMNSLQSDDTAVYYCHADNSWGQGTQVTVSS
notes: as for B1
binding result (GFP-tagged HSP104): binds

B4: CA18505 (VHH)
VHH: QVQLVESGGGLVQPGGSLRLSCAASGSIFSINAWGWYRQAPGKERELVAVITSVGGRTNYADSVKGRFTISRDNAKDMVYLQMNSLKPEDTAVYYCNSRGSSWYFGTPQDYWGQGTQVTVSS
notes: as for B1
binding result (GFP-tagged MET6): binds

B5: CA18508 (VHH)
VHH: QVQLVESGGGLVQPGGSLRLSCAASGFTFSNTAMSWYRQAPGKERELVAVSTSAGGGTDYADSVQGRFTISRDNAKNTVYLQMNDLKPEDTAVYYCYAVGRYRSSWRLLPFGSWGQGTQVTVSS
notes: as for B1
binding result (GFP-tagged SBA1): binds

B6: CA18509 (VHH)
VHH: QVQLVESGGGLVQPGGSLRLSCAAAGFTFRMLDMSWYRQAPGKERELVATITSVSGTTNYADSVKGRVTISRDNAKNTVYLQMNSLKPEDTAVYYCNARMAAWGLDYWGQGTQVTVSS
notes: as for B1
binding result (GFP-tagged SBA1): binds

B7: CA18510 (VHH)
VHH: QVQLVESGGGLVEAGGSLRLSCAASGRTFSSYAMGWFRQAPGKEREFVAAISWSGGSTYYADSVKGRFTISRDNAKNTVYLQMNSLKPEDTAVYYCAAPTAYHYSTTRDEYDSWGQGTQVTVSS
notes: as for B1
binding result (GFP-tagged SOD1): binds

B8: CA17938 (VHH)
VHH: QVQLVESGGGLVQPGGSLRLSCAASGFTLDTWAIGWFRQVPGKDREGAACISSEPSSTYYGEFVNGRFTISRDSAKSTVYLQMNDLKPEDTAVYYCSADRLSAYCSGSGGWGQGTQVTVSS
notes: as for B1
binding result (GFP-tagged ENO1): binds

B9: CA15816 (VHH)
VHH: QVQLVESGGGLVQAGGSLRLSCAASGRTFSTAAMGWFRQAPGKERDFVAGIYWAAGSTYYADSAKGRFTISRDNAKNTVYLQMDSLKPEDTAVYYCAARRRGFTLAPTRANEYDYWGQGTQVTVSS
notes: C-terminal 6xHis-EPEA tag is part of the entry, which already carries T54A/V55A; also called GFP trapper; GFP-specific trapper
Kd (GFP protein): 2.7 nM
